According to patent EP4786493A1:
pEC50, pIC50, pKd: −log10 of the molar value.

Columns and labels:
[1] = molecular target: human Claudin 18.2 expressed on cells (HEK293/human Claudin 18.2; CHO-K1/human Claudin 18.2) (human) (UniProt P56856); experiment: cell-based or functional assay
[2] = molecular target: human Claudin 18.2 expressed on cells (HEK293/human Claudin 18.2; CHO-K1/human Claudin 18.2) (human) (UniProt P56856); experiment: flow cytometry on HEK293 cells expressing human Claudin 18.2
[3] = molecular target: recombinant human Claudin 18.2 protein (GenScript, Z03504) (human) (UniProt P56856); experiment: SPR Biacore 8K, antibody captured via Fc, human Claudin 18.2 protein as analyte
[4] = molecular target: recombinant human Claudin 18.2 protein (GenScript, Z03504) (human) (UniProt P56856); experiment: indirect ELISA, plate coated with recombinant human Claudin 18.2, anti-human IgG Fc-HRP detection
[5] = molecular target: recombinant human Claudin 18.2 protein (GenScript, Z03504) (human) (UniProt P56856); experiment: competition ELISA on coated recombinant human Claudin 18.2; unlabelled IMAB362 against biotinylated IMAB362 (0.72 µg/ml)

With Human IgG1 (antibody) the ADCC reporter gene assay (CHO-K1/Claudin 18.2 target cells, GS-J2C/CD16A 158V effector cells): EC50 [1] was 352 nM, the ADCC reporter gene assay (CHO-K1/Claudin 18.2 target cells, GS-J2C/CD16A 158V effector cells): Top [1] was 90500 and the CDC on CHO-K1/human Claudin 18.2 cells: EC50 [1] was 23.7. The CDC on CHO-K1/human Claudin 18.2 cells: Top [1] was 5.61%.
With “Zolbetuximab (IMAB362, HuIgG1) (antibody)” the ADCC reporter gene assay (CHO-K1/Claudin 18.2 target cells, GS-J2C/CD16A 158V effector cells): EC50 [1] was 0.758 nM, the ADCC reporter gene assay (CHO-K1/Claudin 18.2 target cells, GS-J2C/CD16A 158V effector cells): Top [1] was 213000 and the CDC on CHO-K1/human Claudin 18.2 cells: Top [1] was 93%. It also gave a pEC50 [2] of 8.11, a pKd [3] of 7.41 and a pEC50 [4] of 8.81. The pIC50 [5] was 8.75.
